# Experimental data as given in patent US20180222961A1 (IMMATICS BIOTECHNOLOGIES, published 2018).
# Target: T1, HLA-A*24:02 (human)
# T1 construct: also called peptide-receptive MHC molecules
# Test: UV-exchange b2m ELISA; exchange-yield grade
# Outline: (§1)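 Peptide–MHC complexes formed by UV-ligand exchange, in which a UV-cleavable peptide is replaced by the test peptide. Exchange yield measured by ELISA detecting β2m of stabilised complexes captured on streptavidin, against refolded HLA-A*02:01/MLA-001 monomer standards (15-500 ng/ml); samples diluted 100-fold.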
row,Binder,peptide exchange yield [%]
1,RYSDSVGRVSF,> 75

# Target: T2, HLA-A*02:01 (human)
# T2 construct: also called peptide-receptive MHC molecules
# Test: UV-exchange b2m ELISA; exchange-yield grade
# Outline: as §1
row,Binder,peptide exchange yield [%]
1,KLFDTQQFL,> 75
2,TTYEGSITV,> 75
3,VLQGLLRSL,> 75
4,TLLKALLEI,> 75
5,YLEDTDRNL,> 75
6,YLTDLQVSL,> 75
7,FLIEELLFA,> 75
8,KVVSVLYNV,> 75
9,IMFDDAIERA,> 75
10,VSSSLTLKV,10 to 20
11,PLPRPGAVL,10 to 20
12,RMTTQLLLL,50 to 75
13,SLLDLYQL,20 to 50
14,ALMRLIGCPL,> 75
15,ALIYNLVGI,> 75
16,FAHHGRSL,10 to 20
17,SLPRFQVTL,> 75

row,Binder,peptide exchange yield [%]
1,YTFRYPLSL,50 to 75
2,RLWDWVPLA,> 75
3,ISVPAKTSL,10 to 20
4,SVTESTHHL,50 to 75
5,TISSLTHEL,> 75
6,GVATRVDAI,20 to 50
7,SAIPFSMTL,50 to 75
8,ALFKAWAL,> 75
9,RQPNILVHL,20 to 50
10,STIPALHEI,50 to 75
11,YASEGVKQV,50 to 75
12,DTDSSVHVQV,10 to 20
13,RLLDFINVL,> 75
14,SLGKHTVAL,50 to 75
15,ALQAFEFRV,> 75
16,YLVTKVVAV,> 75
17,VLLAGFKPPL,10 to 20

# Target: T3, human recombinant HLA-B*08:01 and b2m (human)
# T3 construct: expressed in E. coli and purified; stability of the peptide-MHC complex read as b2m associated with the heavy chain over time at 37 C
# Test: pMHC dissociation assay at 37 C; mean half-life grade
# Protocol: Peptide-MHC stability assays for HLA-B*08:01 peptides were performed. The data were obtained using a proximity based, homogenous, real-time assay in order to measure the dissociation of peptides from HLA class I molecules. First, human recombinant HLA-B*08:01 and b2m were expressed in E. coli and purified in a series of liquid chromatography based steps (Ferre et al., 2003; Ostergaard et al., 2001). Then, the stability of a peptide-MHC complex (pMHC) was determined by measuring the amount of b2m associated with the MHC heavy chain over time at 37° C. (Harndahl et al., 2012). The stability of each pMHC, expressed as the half life of b2m associated with the respective heavy chain, was calculated by fitting the data to a one-phase dissociation equation.
row,Binder,mean half-life (T1/2) of peptide-MHC complex [h]
1,ALKARTVTF,6 to 10
2,LNKQKVTF,> 10
3,VGREKKLAL,4 to 6
4,DMKKAKEQL,2 to 4
5,MPNLRSVDL,4 to 6
6,DVKKKIKEV,2 to 4
7,LPRLKAFMI,4 to 6
8,DMKYKNRV,2 to 4
9,SLRLKNVQL,2 to 4
10,MAAVKQAL,4 to 6
11,HLLLKVLAF,4 to 6
12,MGSARVAEL,4 to 6
13,NAMLRKVAV,2 to 4
14,MLRKIAVAA,2 to 4
15,HVKEKFLL,4 to 6
16,EAMKRLSYI,2 to 4

row,Binder,mean half-life (T1/2) of peptide-MHC complex [h]
1,LPKLAGLL,2 to 4
2,VLKHKLDEL,2 to 4
3,YPKARLAF,6 to 10
4,ALKTTTTAL,2 to 4
5,QAKTHSTL,2 to 4
6,QGLLRPVF,4 to 6
7,SIKTKSAEM,6 to 10
8,TPKLRETSI,4 to 6
9,TSHERLTTL,4 to 6
10,TSMPRSSAM,6 to 10
11,YLLEKSRVI,4 to 6
12,FAFRKEAL,4 to 6
13,KLKERNREL,6 to 10
14,MYKMKKPI,2 to 4
15,VLLPRLVSC,2 to 4
